In publication PMC6249546 one finds binding data, which are given here for 3 sequences.

The data set addresses T1, His-EmrR (Chromobacterium violaceum ATCC 12472) (UniProt Q7P000).
T1 sequence: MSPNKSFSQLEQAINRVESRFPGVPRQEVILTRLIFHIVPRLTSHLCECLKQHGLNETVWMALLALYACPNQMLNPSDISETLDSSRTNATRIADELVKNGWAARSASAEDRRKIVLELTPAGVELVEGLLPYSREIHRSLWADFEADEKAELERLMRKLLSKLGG
Put plainly: EMSA. Conditions: 32P-labelled PCR probes, 100-300 nM DTT-reduced His-EmrR, interaction buffer as in da Silva Neto 2012 and Previato-Mello 2017 (composition, pH …).
In the case of “TTGGATCCGAAGGCCAGGCGCTGCATCTGGGCGGCGCCCACCCGAGCGCGCTGGAAAAACTGCTGTTCCCGCGGCTGGAAACCAGCCAGCTGCTGGGCGGCGGCAGCCAGCCGCTGCGGCTGACGCTGAGCTGGCAACAGGGTTGGGCGCAGATCGGCCTGTTCGAATGGACGGTGTGGCTGCTGCTGTCGCTGCTGCTGGGCCTGGGCATAGGCCTGGCCGGCTTCAGCTTCGTGCGCAGCAGCGACAGCTGCAGTAAT (double strand) [CV_0208 coding region]”, the binding result was “binds more weakly”.
Consider “TTGGCACTGCAGCAAATAAGCCTGCCCGTGGCGGCGCCTCCCCCGCCGCCACTCTCCCTCCTTCCCCCGTCTCGCCGGCCCTTCGGCTGCCGCCGTCTACCGGCCGCCAATCTAACCCATTGTCATTTCGCCACACTTTTCGCCAGCATTTCATTAGCAAGGTTATTATTACTTGCAAAATAATACCGCACGTTACTAAAATGGCCGCATGAGTCCAAACAAGAAGCTTATA (double strand) [emrR promoter]”, for which the binding result is on record as “binds”.
Consider “TTGGCAGAGCTCCAATGATGCATGTCGGTCCGGACGTGATTAATCTGGTGATAATCACCCGGGTTATTATTCGAGTGAAAAAGCGCGGGCTCAGCCAAGCTTATA (double strand) [emrCAB promoter]”, for which the binding entry is reported as “binds”.
